According to patent US7314724B2, “Therapeutic applications of laminin and laminin-derived protein fragments” (University of Washington, priority 1996, dated 2008):
Entries after “also recorded” stand apart in the source; their conditions may differ.

B1: ˜55 kilodalton (kDa) laminin fragment: ˜55 kDa Aβ-binding fragment from V8 or elastase digested mouse EHS laminin; within globular repeats of the laminin A chain (E3 region) (protein)
chain: HREHGELPPEPPTLPQPELCAVDTAPGYVAGAHQFGLSQNSHLVLPLNQSDVRKRLQVQLSIRTFASSGLIYYVAHQNQMDYATLQLQEGRLHFMFDLGKGRTKVSHPALLSDGKWHTVKTEYIKRKAFMTVDGQESPSVTVVGNATTLDVERKLYLGGLPSHYRARNIGTITHSIPACIGEIMVNGQQLDKDRPLSASAVDRCYVVAQEGTFFEGSGYAALVKEGYKVRLDLNITLEFRTTSKNGVLLGISSAKVDAIGLEIVDGKVLFHVNNGAGRITATYQPRAARALCDGKWHTLQAHKSKHRIVLTVDGNSVRAESPHTHSTSADTNDPIYVGGYPAHIKQNCLSSRASFRGCVRNLRLSRGSQVQSLDLSRAFDLQGVFPHSCPGPEP

What was measured:
Aβ (1-40) = target: T1, Aβ (1-40) (Homo sapiens, UniProt P05067); assay: Thioflavin T fluorometry, Aβ (1-40) amyloid fibril formation; format: biochemical; settings: comparison of basement membrane components (FIG. 3), 25 μM Aβ (1-40), 100 nM, 1 hour to 1 week
T1 construct: 2 μg of Aβ (1-40)(Bachem Inc., Torrance, Calif. USA; Lot #WM365); purchased Bachem Inc., Torrance, Calif; Lot #WM365
Method: The effects of laminin on Aβ fibrillogenesis was also determined using the previously described method of Thioflavin T fluorometry (Naiki et al, Lab. Invest. 65:104-110, 1991; Levine III, Protein Sci. 2:404-410, 1993; Levine III, Int. J. Exp. Clin. Invest. 2:1-6, 1995; Naiki and Nakakuki, Lab. Invest. 74:374-383, 1996). In this assay, Thioflavin T binds specifically to fibrillar amyloid and this binding produces a fluorescence enhancement at 480 nm that is directly proportional to the amount of amyloid fibrils formed (Naiki et al, Lab. Invest. 65:104-110, 1991; Levine III, Protein Sci. 2:404-410, 1993; Levine III, Int. J. Exp. Clin. Invest. 2:1-6, 1995; Naiki and Nakakuki, Lab. Invest. 74:374-383, 1996). In a first study, the effects of EHS laminin on Aβ (1-40) fibrillogenesis was assessed. For this study, 25 μM of freshly solubilized Aβ (1-40)(Bachem Inc., Torrance, Calif., USA; Lot #WM365) was incubated in microcentrifuge tubes at 37° C. for 1 week (in triplicate), either alone, or in the presence of 100 nM EHS laminin (Sigma Chemical Company, St. Louis, Mo., USA) in 100 mM Tris, 50 mM NaCl, pH 7.0 (TBS). 100 nM of laminin utilized for these studies represented a Aβ:laminin molar ratio of 250:1. 50 μl aliquots were then taken from each tube for analysis at 1 hr, 1 day, 3 days, and 1 week. In a second set of studies, the effects of laminin on Aβ (1 -40) fibril formation was directly compared to other basement membrane components including fibronectin, type IV collagen and perlecan. For these studies, 25 μM of freshly solubilized Aβ (1-40) was incubated in microcentrifuge tubes for 1 week (in triplicate) either alone, or in the presence of 100 nM of EHS perlecan (isolated as previously described)(Castillo et al, J. Biochem. 120:433-444, 1996), fibronectin (Sigma Chemical Company, St. Louis, Mo., USA) or type IV collagen (Sigma Chemical Company, St. Louis, Mo., USA). 50 ul aliquots were then taken for analysis at 1 hour, 1 day, 3 days and 1 week. In a third set of studies, 25 μM of freshly solubilized Aβ (1-40) was incubated in microcentrifuge tubes for 1 week (in triplicate) either alone, or in the presence of increasing concentrations of laminin (i.e. 5 nM, 15 nM, 40 nM and 100 nM). 50 μl aliquots were taken for analysis at 1 hour, 1 day, 3 days and 1 week.
For each determination described above, following each incubation period, Aβ peptides +/− laminin, perlecan, fibronectin or type IV collagen, were added to 1.2 ml of 100 μM Thioflavin T (Sigma Chemical Co., St. Louis, Mo.) in 50 mM phosphate buffer (pH 6.0). Fluorescence emission at 480 nm was measured on a Turner instrument-model 450 fluorometer at an excitation wavelength of 450 nm. For each determination, the fluorometer was calibrated by zeroing in the presence of the Thioflavin T reagent alone, and by seting the 50 ng/ml riboflavin (Sigma Chemical Co., St. Louis, Mo.) in the Thioflavin T reagent to 1800 fluorescence units. All fluorescence determinations were based on these references and any background fluorescence given off by laminin, perlecan, type IV collagen, or fibronectin alone in the presence of the Thioflavin T reagent was always subtracted from all pertinent readings.

biotinylated Aβ (1-40) = target: T2, biotinylated Aβ (1-40) (Homo sapiens, UniProt P05067); assay: Aβ ligand blot of undigested and V8-, trypsin- or elastase-digested EHS laminin; format: binding; settings: 2 μM biotinylated Aβ (1-40), SDS-PAGE under non-reducing conditions
T2 construct: Aβ (1-40) was biotinylated according to the manufacturer's protocol (Pierce, Rockford, Ill.)
Method: For these experiments, Aβ (1-40) was biotinylated according to the manufacturer's protocol (Pierce, Rockford, Ill.). For the ligand studies, intact EHS laminin was left undigested, or digested with V8 or trypsin (Sigma Chemical Company, St. Louis, Mo., USA). More specifically, 2 μg of trypsin or V8 protease in 2 μl of 50 MM Tris-HCl buffer (pH 8.0) were added to 50 μl of laminin (50 μg)(in the same buffer) and incubated overnight at 37° C. The next day, 10 μl of protease-digested laminin (or undigested laminin) was mixed with 10 μl of 2× sodium dodecyl sulfate polyacrylamide gel electrophoresis (SDS-PAGE) sample buffer, and heated for 5 minutes in a boiling water bath. SDS-PAGE was performed according to the method of Laemmli (Laemmli, U.K. Nature 227:680-685, 1970), or according to the method of Schägger and Jagow (Schägger and Jagow, Anal. Biochem. 166:368-379, 1987) using a Mini-Protean II electrophoresis system (Biorad) with precast 4-15% Tris-Glycine or 10-20% tricine polyacrylamide gels, respectively, and under non-reducing conditions. Electrophoresis occurred at 200V for 45 minutes along with pre-stained molecular weight standards. After SDS-PAGE (10-20% tricine or 4-15% Tris-Glycine gels) was performed as described above, the separated laminin and its fragments (total protein of 10 μg/lane) were transferred to polyvinylidine difluoride membrane (PVDF) using a Mini transblot electrophoresis transfer cell (Biorad, Hercules, Calif., U.S.A.). Electrotransfer was performed at 100V for 2 hours. Following transfer, membranes were rinsed with methanol and dried. The fragment(s) of laminin involved in binding to Aβ were then detected by using biotinylated-Aβ (1-40), as described above. Blots were probed for 2 hours with 2 μM biotinylated Aβ (1-40) in TTBS. The membranes were then rinsed three times (10 seconds each) with TTBS, probed for 30 minutes with strepavidin alkaline phosphatase conjugate (Vectastain), rinsed again (as described above), and followed by the addition of an alkaline phosphatase substrate solution (Vectastain). Following color development, the reaction was stopped by flushing the membranes with double distilled water. In the next set of studies, we determined whether small fragment(s) of laminin generated by elastase digestion would bind to Aβ. […] For these experiments, Aβ (1-40) was biotinylated according to the manufacturer's protocol (Pierce, Rockford, Ill.). For the ligand studies, intact EHS laminin was left undigested, or digested with elastase (Sigma Chemical Company, St. Louis, Mo., USA). For elastase digestion, 2 μg of elastase in 8 μl of 50 mM Tris-HCl buffer (pH 8.0) was added to 50 μl of laminin (50 μg)(in the same buffer) and incubated for 1.5 hours or 2.5 hours at 37° C. In addition, as a control, 2 μg of elastase in 50 μl of 50 mM Tris-HCl buffer (pH 8.0) was incubated for 2.5 hours at 37° C. Following the appropriate incubation times as described above, 10 μl of each of the above incubations were mixed with 10 μl of 2× SDS-PAGE electrophoresis sample buffer, and heated for 5 minutes in a boiling water bath. SDS-PAGE was performed according to the method of Laemmli (Laemmli, Nature 227:680-685, 1970) using a Mini-Protean II electrophoresis system with precast 4-15% Tris-Glycine polyacrylamide gels, and under non-reducing conditions. Electrophoresis occurred at 200V for 45 minutes along with pre-stained molecular weight standards (Biorad). After SDS-PAGE was performed as described above, the separated laminin fragments were transferred to PVDF using a Mini transblot electrophoresis transfer cell (Millipore, Bedford, Mass., U.S.A.). Electrotransfer was performed at 100V for 2 hours. Following transfer, membranes were rinsed with methanol, dried and cut into two equal parts which were used for Aβ ligand blotting, or Coomassie blue staining and subsequent amino acid sequencing. The fragment(s) of laminin involved in binding to Aβ were then detected by using biotinylated-Aβ (1-40), as described above. […]

T1 sequence (P05067 672-711 limits assumed): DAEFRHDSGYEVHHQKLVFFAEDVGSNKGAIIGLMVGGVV
T2 sequence (P05067 672-711 limits assumed): as above

Row | Molecule | effect on Aβ (1-40) fibrillogenesis, in words (Aβ (1-40)) | effect on Aβ (1-40) fibrillogenesis, in words (Aβ (1-40); listed as Perlecan) | interaction with biotinylated Aβ (1-40) on ligand blot, in words (biotinylated Aβ (1-40)) | interaction with biotinylated Aβ (1-40) on ligand blot, in words (biotinylated Aβ (1-40); listed as 55 kDa laminin fragment) | interaction with biotinylated Aβ (1-40) on ligand blot, in words (biotinylated Aβ (1-40); listed as ˜55 kDa) | interaction with biotinylated Aβ (1-40) on ligand blot, in words (biotinylated Aβ (1-40); listed as ˜55 kilodalton fragment) | interaction with biotinylated Aβ (1-40) on ligand blot, in words (biotinylated Aβ (1-40); listed as ˜55 kilodalton laminin fragment)
1 | fibronectin [reference compound] | not effective inhibitors; also recorded: only showed significant inhibition of Aβ (1-40) fibrillogenesis at 1 week |  |  |  |  |  | 
2 | perlecan: EHS perlecan, basement membrane component used as comparison [reference compound] | not effective inhibitors | significantly accelerate Aβ (1-40) amyloid formation at 1 day and 3 days |  |  |  |  | 
3 | B1 |  |  | interact with biotinylated Aβ (1-40) | positive Aβ binding interaction | interacted with Aβ (1-40) | interacts with Aβ | binds biotinylated Aβ
